Consider four molecules from patent US20050255117A1 (Biogen, published 2005).

In test [1] the target is T1, CR-Fc (UniProt P13385 31-169).
T1 construct: not shown: Fc part; not described
T1 sequence (looked up): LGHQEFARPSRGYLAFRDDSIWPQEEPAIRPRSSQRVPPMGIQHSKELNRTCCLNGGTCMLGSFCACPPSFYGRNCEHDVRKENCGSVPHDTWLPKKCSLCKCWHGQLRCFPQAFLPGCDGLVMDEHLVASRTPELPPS
The test can be described thus: ELISA, ligand coated on the plate, CR-Fc detected with anti-Fc-alkaline phosphatase. On the procedure: We discovered that Cripto binds directly to Activin B. We coated ELISA plates with purified Activin B, Activin A, TGFβ1, GDNF or BMP2 and incubated with CR-Fc. We then added anti-Fc antibody conjugated to alkaline phosphatase and monitored binding by adding an alkaline phosphatase substrate and developing. We observed that CR-Fc bound to wells containing Activin B, but not to Activin A or the other ligands (FIG. 8). In addition, we pre-incubated CR-Fc with Activin A or B in solution before adding to an Activin B coated plate and observed that only Activin B inhibited binding (FIG. 9).

The target in test [2] is T1, CR-Fc. Kind of test: Biacore, competition format in solution.
The next test has as its target T2, LTβR-Fc (UniProt P36941 31-227).
T2 construct: Control protein on the Biacore chip; also called LT-beta receptor-Fc; control LTβR-Fc protein; not shown: Fc part; not described
The test can be described thus: Biacore, Fc fusion protein immobilized on the chip. The text has this: We also analyzed the Cripto-Activin B interaction using Biacore. We discovered that Activin B directly binds CR-Fc immobilized on a Biacore chip with a high intensity, but not to a control LTβR-Fc protein (FIG. 10). We also observed that Activin A binding to CR-Fc was negligible.

T2 sequence (P36941 31-227): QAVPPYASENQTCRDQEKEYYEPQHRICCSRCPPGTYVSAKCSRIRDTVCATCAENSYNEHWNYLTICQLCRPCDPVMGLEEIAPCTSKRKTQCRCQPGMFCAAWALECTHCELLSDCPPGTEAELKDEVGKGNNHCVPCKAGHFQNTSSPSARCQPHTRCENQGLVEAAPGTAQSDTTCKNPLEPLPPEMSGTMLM

B1: BMP2 (ligand, UniProt P12643 283-396, looked up)
chain: QAKHKQRKRLKSSCKRHPLYVDFSDVGWNDWIVAPPGYHAFYCHGECPFPLADHLNSTNHAIVQTLVNSVNSKIPKACCVPTELSAISMLYLDENEKVVLKNYQDMVVEGCGCR
For B1, the binding result with CR-Fc [1] is “no binding”.

B2: Activin A (ligand, UniProt P08476 311-426, looked up)
chain: GLECDGKVNICCKKQFFVSFKDIGWNDWIIAPSGYHANYCEGECPSHIAGTSGSSLSFHSTVINHYRMRGHSPFANLKSCCVPTKLRPMSMLYYDDGQNIIKKDIQNMIVEECGCS
Consider B2, for which the binding result with CR-Fc [1] is recorded as “no binding”.

B3: Activin B (ligand, UniProt P09529 293-407, looked up)
chain: GLECDGRTNLCCRQQFFIDFRLIGWNDWIIAPTGYYGNYCEGSCPAYLAGVPGSASSFHTAVVNQYRMRGLNPGTVNSCCIPTKLSTMSMLYFDDEYNIVKRDVPNMIVEECGCA
Molecule B3 displayed a dissociation constant Kd with CR-Fc [2] of roughly 1 nM. In the test with LTβR-Fc, the binding result is recorded as “no binding”.

B4: GDNF (ligand, UniProt P39905 78-211, looked up)
chain: SPDKQMAVLPRRERNRQAAAANPENSRGKGRRGQRGKNRGCVLTAIHLNVTDLGLGYETKEELIFRYCSGSCDAAETTYDKILKNLSRNRRLVSDKVGQACCRPIAFDDDLSFLDDNLVYHILRKHSAKRCGCI
As for B4, in the test with CR-Fc [1], the binding result was “no binding”.
